Measured values reported in US20220348661A1 (HARBOUR BIOMED SHANGHAI, published 2022).

B1: PR000511 (antibody, human IgG1, lambda, L234A L235A, V domains shown)
VH: EVQLLESGGGLVQPGGSLRLSCAASGFTFNTYAMNWVRQAPGKGLEWVSRIRSKYNNYATYYADSVKDRFTISRDDSKSTLYLQMNSLRAEDTAVYYCVRHGNFGNSYVSWFAYWGQGTLVTVSS
VL: QAVVTQEPSLTVSPGGTVTLTCRSSTGAVTTSNYANWVQQKPGQAPRGLIGGTNKRAPWTPARFSGSLLGDKAALTLLGAQPEDEAEYFCALWYSNLWVFGGGTKLTVLG
notes: humanized SP34 variant, IgG1 LALA; also called VH3231/VL7461 IgG
B2: PR000513 (antibody, human IgG1, kappa, L234A L235A, V domains shown)
VH: EVQLLESGGGLVQPGGSLRLSCAASGFTFNTYAMNWVRQAPGKGLEWVSRIRSKYNNYATYYADSVKDRFTISRDDSKSTLYLQMNSLRAEDTAVYYCVRHGNFGNSYVSWFAYWGQGTLVTVSS
VL: DAQMTQSPSSLSASVGDRVTITCRSSTGAVTTSNYANWVQQKPGKAPKGLIGGTNKRAPGVPSRFSGSLSGDDATLTISSLQPEDFATYFCALWYSNLWVFGGGTKVEIKR
notes: humanized SP34 variant, IgG1 LALA; also called VH3231/VK1393 IgG
B3: PR003886 (antibody, human IgG1, lambda, L234A L235A, V domains shown)
VH: EVQLVESGGGLVQPGGSLKLSCAASGFTFSTYAMNWVRQASGKGLEWVGRIRSKYNNYATYYADSVKDRFTISRDDSKNTAYLQMNSLKTEDTAVYYCTRHGNFGNSYVSWFAYWGQGTLVTVSS
VL: QAVVTQEPSLTVSPGGTVTLTCRSSTGAVTTSNYANWVQQKPGQAPRGLIGGTNKRAPWTPARFSGSLLGDKAALTLLGAQPEDEAEYFCALWYSNLWVFGGGTKLTVLG
notes: humanized SP34 variant, IgG1 LALA; also called VH3735/VL7461 IgG
B4: PR002833 (antibody, human IgG1, lambda, L234A L235A, V domains shown)
VH: EVQLLESGGGLVQPGGSLRLSCAASGFTFSTYAMNWVRQAPGKGLEWVSRIRSKYNNYATYYADSVKDRFTISRDNSKNTLYLQMNSLRAEDTAVYYCVRHGNFGNSYVSWFAYWGQGTLVTVSS
VL: QAVVTQEPSLTVSPGGTVTLTCRSSTGAVTTSNYANWVQQKPGQAPRGLIGGTNKRAPWTPARFSGSLLGDKAALTLLGAQPEDEAEYFCALWYSNLWVFGGGTKLTVLG
notes: humanized SP34 variant, IgG1 LALAPG; also called VH3234/VL7461 IgG
B5: PR000514 (antibody, human IgG1, kappa, L234A L235A, V domains shown)
VH: EVQLVESGGGLVQPGGSLKLSCAASGFTFNTYAMNWVRQASGKGLEWVGRIRSKYNNYATYYADSVKDRFTISRDDSKSTLYLQMNSLKTEDTAVYYCVRHGNFGNSYVSWFAYWGQGTLVTVSS
VL: DAQMTQSPSSLSASVGDRVTITCRSSTGAVTTSNYANWVQQKPGKAPKGLIGGTNKRAPGVPSRFSGSLSGDDATLTISSLQPEDFATYFCALWYSNLWVFGGGTKVEIKR
notes: humanized SP34 variant, IgG1 LALA; also called VH3731/VK1393 IgG
B6: PR000512 (antibody, human IgG1, lambda, L234A L235A, V domains shown)
VH: EVQLVESGGGLVQPGGSLKLSCAASGFTFNTYAMNWVRQASGKGLEWVGRIRSKYNNYATYYADSVKDRFTISRDDSKSTLYLQMNSLKTEDTAVYYCVRHGNFGNSYVSWFAYWGQGTLVTVSS
VL: QAVVTQEPSLTVSPGGTVTLTCRSSTGAVTTSNYANWVQQKPGQAPRGLIGGTNKRAPWTPARFSGSLLGDKAALTLLGAQPEDEAEYFCALWYSNLWVFGGGTKLTVLG
notes: humanized SP34 variant, IgG1 LALA; also called VH3731/VL7461 IgG
B7: PR001849 (antibody, human IgG1, lambda, L234A L235A, V domains shown)
VH: EVQLVESGGGLVQPGGSLKLSCAASGFTFSTYAMNWVRQASGKGLEWVGRIRSKYNNYATYYADSVKDRFTISRDDSKSTLYLQMNSLKTEDTAVYYCVRHGNFGNSYVSWFAYWGQGTLVTVSS
VL: QAVVTQEPSLTVSPGGTVTLTCRSSTGAVTTSNYANWVQQKPGQAPRGLIGGTNKRAPWTPARFSGSLLGDKAALTLLGAQPEDEAEYFCALWYSNLWVFGGGTKLTVLG
notes: humanized SP34 variant, IgG1 LALAPG; also called VH3732/VL7461 IgG
B8: PR002834 (antibody, human IgG1, lambda, L234A L235A, V domains shown)
VH: EVQLLESGGGLVQPGGSLRLSCAASGFTFSTYAMNWVRQAPGKGLEWVSRIRSKYNNYATYYADSVKDRFTISRDDSKSTLYLQMNSLRAEDTAVYYCAKHGNFGNSYVSWFAYWGQGTLVTVSS
VL: QAVVTQEPSLTVSPGGTVTLTCRSSTGAVTTSNYANWVQQKPGQAPRGLIGGTNKRAPWTPARFSGSLLGDKAALTLLGAQPEDEAEYFCALWYSNLWVFGGGTKLTVLG
notes: humanized SP34 variant, IgG1 LALAPG; also called VH3235/VL7461 IgG
B9: PR001848 (antibody, human IgG1, lambda, L234A L235A, V domains shown)
VH: EVQLLESGGGLVQPGGSLRLSCAASGFTFSTYAMNWVRQAPGKGLEWVSRIRSKYNNYATYYADSVKDRFTISRDDSKSTLYLQMNSLRAEDTAVYYCVRHGNFGNSYVSWFAYWGQGTLVTVSS
VL: QAVVTQEPSLTVSPGGTVTLTCRSSTGAVTTSNYANWVQQKPGQAPRGLIGGTNKRAPWTPARFSGSLLGDKAALTLLGAQPEDEAEYFCALWYSNLWVFGGGTKLTVLG
notes: humanized SP34 variant, IgG1 LALAPG; also called VH3232/VL7461 IgG
B10: PR002837 (antibody, human IgG1, lambda, L234A L235A, V domains shown)
VH: EVQLVESGGGLVQPGGSLKLSCAASGFTFSTYAMNWVRQASGKGLEWVGRIRSKYNNYATYYADSVKDRFTISRDDSKNTAYLQMNSLKTEDTAVYYCVRHGNFGNSYVSWFAYWGQGTLVTVSS
VL: QAVVTQEPSLTVSPGGTVTLTCRSSTGAVTTSNYANWVQQKPGQAPRGLIGGTNKRAPWTPARFSGSLLGDKAALTLLGAQPEDEAEYFCALWYSNLWVFGGGTKLTVLG
notes: humanized SP34 variant, IgG1 LALAPG; also called VH3734/VL7461 IgG
B11: PR002835 (antibody, human IgG1, lambda, L234A L235A, V domains shown)
VH: EVQLLESGGGLVQPGGSLRLSCAASGFTFSTYAMNWVRQAPGKGLEWVSRIRSKYNNYATYYADSVKDRFTISRDNSKSTLYLQMNSLRAEDTAVYYCARHGNFGNSYVSWFAYWGQGTLVTVSS
VL: QAVVTQEPSLTVSPGGTVTLTCRSSTGAVTTSNYANWVQQKPGQAPRGLIGGTNKRAPWTPARFSGSLLGDKAALTLLGAQPEDEAEYFCALWYSNLWVFGGGTKLTVLG
notes: humanized SP34 variant, IgG1 LALAPG; also called VH3236/VL7461 IgG
B12: PR002742 (antibody, human IgG1, lambda, L234A L235A, V domains shown)
VH: EVQLVESGGGLVQPGGSLKLSCAASGFTFNTYAMNWVRQASGKGLEWVGRIRSKYNNYATYYADSVKDRFTISRDDSKNTAYLQMNSLKTEDTAVYYCTRHGNFGNSYVSWFAYWGQGTLVTVSS
VL: QAVVTQEPSLTVSPGGTVTLTCRSSTGAVTTSNYANWVQQKPGQAPRGLIGGTNKRAPWTPARFSGSLLGDKAALTLLGAQPEDEAEYFCALWYSNLWVFGGGTKLTVLG
notes: humanized SP34 variant, IgG1 LALA; also called VH3730/VL7461 IgG
B13: PR004616 (antibody, human IgG1, lambda, L234A L235A, V domains shown)
VH: EVQLLESGGGLVQPGGSLRLSCAASGFTFSTYAMNWVRQAPGKGLEWVSRIRSKYNNYATYYADSVKDRFTISRDNSKNTLYLQMNSLRAEDTAVYYCAKHGNFGNSYVSWFAYWGQGTLVTVSS
VL: QAVVTQEPSLTVSPGGTVTLTCRSSTGAVTTSNYANWVQQKPGQAPRGLIGGTNKRAPWTPARFSGSLLGDKAALTLLGAQPEDEAEYFCALWYSNLWVFGGGTKLTVLG
notes: humanized SP34 variant, IgG1 LALA; also called VH3233/VL7461 IgG
B14: PR002469 (antibody, human IgG1, lambda, L234A L235A, V domains shown)
VH: EVQLLESGGGLVQPGGSLRLSCAASGFTFNTYAMNWVRQAPGKGLEWVSRIRSKYNNYATYYADSVKDRFTISRDNSKNTLYLQMNSLRAEDTAVYYCAKHGNFGNSYVSWFAYWGQGTLVTVSS
VL: QAVVTQEPSLTVSPGGTVTLTCRSSTGAVTTSNYANWVQQKPGQAPRGLIGGTNKRAPWTPARFSGSLLGDKAALTLLGAQPEDEAEYFCALWYSNLWVFGGGTKLTVLG
notes: humanized SP34 variant, IgG1 LALA; also called VH3230/VL7461 IgG
B15: PR002836 (antibody, human IgG1, lambda, L234A L235A, V domains shown)
VH: EVQLVESGGGLVQPGGSLKLSCAASGFTFSTYAMNWVRQASGKGLEWVGRIRSKYNNYATYYADSVKDRFTISRDDSKSTLYLQMNSLKTEDTAVYYCTRHGNFGNSYVSWFAYWGQGTLVTVSS
VL: QAVVTQEPSLTVSPGGTVTLTCRSSTGAVTTSNYANWVQQKPGQAPRGLIGGTNKRAPWTPARFSGSLLGDKAALTLLGAQPEDEAEYFCALWYSNLWVFGGGTKLTVLG
notes: humanized SP34 variant, IgG1 LALAPG; also called VH3733/VL7461 IgG

The binders below were run against T1, human CD3 (human, UniProt P07766 23-207; P09693 23-182; P04234 22-171; P20963 22-164) (assay: flow cytometry on human pan-T cells; MFI at 7.4 or 10 µg/ml relative to PR000260).
T1 construct: whole, on cells; SP34 is described as an anti-human CD3e antibody; also called human TCR/CD3 complex; CD3 on human pan-T cells
T1 sequence (P07766 23-207, chain 1 of 4): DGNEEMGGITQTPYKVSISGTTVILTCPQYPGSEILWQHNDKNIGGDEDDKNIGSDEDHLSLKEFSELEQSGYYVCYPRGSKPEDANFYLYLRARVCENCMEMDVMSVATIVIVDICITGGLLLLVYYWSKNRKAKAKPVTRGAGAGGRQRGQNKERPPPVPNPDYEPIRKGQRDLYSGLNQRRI
T1 sequence (P09693 23-182, chain 2 of 4): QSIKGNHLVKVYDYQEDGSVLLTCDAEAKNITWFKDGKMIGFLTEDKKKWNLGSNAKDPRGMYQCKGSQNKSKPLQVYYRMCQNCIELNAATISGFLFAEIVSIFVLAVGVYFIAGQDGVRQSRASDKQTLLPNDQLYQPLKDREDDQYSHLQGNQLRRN
T1 sequence (P04234 22-171, chain 3 of 4): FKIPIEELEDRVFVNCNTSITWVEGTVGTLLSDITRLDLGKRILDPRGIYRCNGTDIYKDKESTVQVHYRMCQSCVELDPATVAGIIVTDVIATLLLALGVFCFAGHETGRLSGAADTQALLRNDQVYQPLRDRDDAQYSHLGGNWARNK
T1 sequence (P20963 22-164, chain 4 of 4): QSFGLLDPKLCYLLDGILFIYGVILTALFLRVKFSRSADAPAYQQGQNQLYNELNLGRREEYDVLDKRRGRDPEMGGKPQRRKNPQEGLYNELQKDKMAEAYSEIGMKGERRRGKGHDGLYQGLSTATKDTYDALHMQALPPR
Text: The flow cytometryFACS was used to analyse the binding of the CD3 antibody to CD3-expressing cells, where the CD3-expressing cells could be: CHOK1 cells overexpressing human CD3 or HEK 293 cells (plasmids encoding the ORF of γ, δ, ε, and ζ chains of human-derived CD3 and plasmids encoding the ORF of α and β chains of human TCR were co-transfected with host cells CHOK1 (ATCC, CCL-61) or HEK293 (ATCC, CRL-1573) to construct stable cell lines expressing the structure of the human TCR/CD3 complex); CHOK1 or HEK293 cells overexpressing cynomolgus monkey CD3; human pan-T cells (isolated with the human pan-T cell isolation kit (Miltenyi, #130-096-535) from PBMC); cynomolgus monkey pan-T cells. Specifically, the collected cells were washed twice with PBS containing 2% FBS (FACS buffer), and resuspended with FACS buffer, divided into 96 well plates with 1×10⁵ cells per well, centrifuged at 500 g for 5 minutes. The supernatant was discarded, and 100 μl of pre-gradient diluted CD3 antibody was added, then incubating for 1 hour at room temperature and washing twice with FACS buffer. The cells were resuspended with FACS buffer diluted with secondary antibody Alexa Fluor 488 AffiniPure Goat Anti-Human IgG, Fcγ fragment specific (Jackson ImmunoResearch, #109-545-098), then incubated at room temperature in the dark for 30 minutes. The cells were washed twice with FACS buffer, and resuspended with 200 μl FACS buffer. The fluorescent luminescence signal value were read by flow cytometry (BD FACS CANTOII or ACEA NovoCyte), and the resulted data were processed and analyzed by software FlowJo v10 (FlowJo, LLC). The software GraphPad Prism 8 was used for data processing and graphical analysis, and parameters such as binding curves and EC50 values can be obtained by four-parameter nonlinear fitting.
FIG. 7(A) to (G) show the binding ability of the CD3 antibodies obtained in the Example 4.2 (including PR000260 and its mutants) to human pan-T cells, respectively. The fluorescence intensity MFI of the CD3 antibody binding to human pan-T cells and the relative ratio relative to the initial antibody PR000260 were calculated when the antibody concentration was 7.4 or 10 μg/ml.

Q: Does B1 bind?
A: Result: binds

Q: Does B2 bind?
A: Result: binds

Q: Does B3 bind?
A: Result: binds

Q: Does B4 bind?
A: Result: binds

Q: Does B5 bind?
A: Result: binds

Q: Does B6 bind?
A: Result: binds

Q: Does B7 bind?
A: Result: binds

Q: Does B8 bind?
A: Result: binds

Q: Does B9 bind?
A: Result: binds

Q: Does B10 bind?
A: Result: binds

Q: Does B11 bind?
A: Result: binds

Q: Does B12 bind?
A: Result: binds

Q: Does B13 bind?
A: Result: binds

Q: Does B14 bind?
A: Result: binds

Q: Does B15 bind?
A: Result: binds
